Assay results taken from paper PMC7497641, “Neurotropic activity and safety of methylene-cycloalkylacetate (MCA) derivative 3-(3-allyl-2-methylenecyclohexyl) propanoic acid” (ACS Chemical Neuroscience, 2020).

Experiments:
[1] = biological target: T1, Nicotinic acetylcholine Receptor alpha-4 beta-2 (nAChR(a4/b2)) (Homo sapiens, UniProt P17787+P43681); assay: cell-based; conditions: Blocker; Ion channel; read-out: RC50 (the source's name)
T1 construct: host or cells: unnamed DiscoverX cell line

[2] = biological target: Gamma-aminobutyric acid Receptor A (GABAA) (Homo sapiens, UniProt P14867+P18507+P47870); assay: SAFETYscan Ion channel assay; type: cell-based; conditions: Blocker, read-out: RC50 (the source's name)
[3] = test system: PC12 dopaminergic cell cultures; assay: PC12 neurotropic (neurite outgrowth) assay; type: cell-based, rat; conditions: for neurite outgrowth, Df value: NGF alone 50 ng/mL
[4] = test system: dorsal root ganglion (DRG) sensory neurons; assay: DRG neurite outgrowth assay; type: cell-based, mice; conditions: NGF 50 ng/mL, DRG explants, 5 days
Description: In the second step, we study the effect of HU-MCA-13 on ex-vivo sensory neuronal cultures obtained from dissociated dorsal root ganglia (DRG), a model in which the neurons tend to extend neurites in culture at a high rate, and all neurite outgrowths are axons, as confirmed by immune staining for cytoskeletal-specific proteins.[27] […] By contrast, NGF induced a strong, 3.5-fold increase in neurite outgrowth to a value of 700 μm (Figure 1 and Figure 3B) and a ratio of 8.5 between the area covered by neurites and that covered by the DRG ganglia (Figure 3C). Similarly, HU-MCA-13 induced a 2.5 fold increase in neurite outgrowth to a value of about 500 μm (Figure 1 and Figure 3B) and a ratio of 5.4 between the area covered by neurites and that covered by the DRG ganglia (Figure 3C). […] These experiments extend the neurotropic effect of MCA-13 observed with PC12 dopaminergic neuronal cultures to DRG sensory neurons.
To perform these experiments, 10 DRGs were excised under sterile conditions and transferred to Dulbecco’s Modified Eagle Medium (DMEM) containing 0.25% Type IV collagenase in at 37 °C for 45 min, followed by a 20 min incubation with 0.025% trypsin in DMEM, to digest the associated connective tissue surrounding the neurons. After plating the ganglia onto collagen (50 μg/mL)/laminin mixture (5 μg/mL)-coated tissue culture wells for 24 h, DRG neurons were cultured for additional 1–7 days in fresh Neurobasal A/B27 medium[27] containing either 50 ng/mL NGF (positive control), medium containing 1% DMSO (negative control) or 5 μM MCA-13. The living cultures were photographed and thereafter, the ganglia were immunostained for β tubulin III and again photographed using a fluorescent microscope. A researcher blinded to the experimental conditions performed image analysis, and the neurite outgrowth length (in micrometers) was measured.[50]

[5] = test system: PGE2 production in PC12 cells; assay: PGE2 production measured by ELISA; conditions: 50 ng/mL NGF; 24 h
[6] = test system: adult rat spinal cord primary cultures; assay: Spinal cord neurons neurite outgrowth assay; type: cell-based; conditions: NGF 50 ng/mL
Protocol: To study the effect of HU-MCA-13 on adult rat spinal cord primary cultures in vitro, we developed a purification procedure that yields enriched different types of spinal cord neuronal cultures. This neurotropic assay was performed using vehicle 1% DMSO in DMEM as control and 10 μM HU-MCA-13. The results in Figure 1 bottom row and Figure 3D clearly indicate that in control there was very poor spontaneous neurite outgrowth of a total length of about 180 μm and NGF induced neurite outgrowth to a total length of about 800 μm. Similarly, HU-MCA-13 induced a neurite outgrowth of 600 μm. Figure 2B indicates cytoskeletal-tubulin protein expression in the cultured neurons. These findings further extend the neurotropic effect of HU-MCA-13 to spinal cord neurons, in addition to DRGs and PC12 cells.
Spinal cords were isolated from adult rats (4–6 months old), and the meninges were removed from the spinal cord. The spinal cord was then cut into small pieces and collected in cold Hibernate A (Brainbits, Springfield, IL, USA), glutamine (0.5 mM), and B27 (Invitrogen, Carlsbad, CA). […] Neurite outgrowth was measured and presented as mean length of a neurite (microns). To measure neuronal survival, 450 cells were counted in 10 randomly chosen microscope fields of a known area in each of the three dishes per condition using a 20× objective and phase-contrast optics. […]

T1 sequence (P43681 29-627 limits assumed): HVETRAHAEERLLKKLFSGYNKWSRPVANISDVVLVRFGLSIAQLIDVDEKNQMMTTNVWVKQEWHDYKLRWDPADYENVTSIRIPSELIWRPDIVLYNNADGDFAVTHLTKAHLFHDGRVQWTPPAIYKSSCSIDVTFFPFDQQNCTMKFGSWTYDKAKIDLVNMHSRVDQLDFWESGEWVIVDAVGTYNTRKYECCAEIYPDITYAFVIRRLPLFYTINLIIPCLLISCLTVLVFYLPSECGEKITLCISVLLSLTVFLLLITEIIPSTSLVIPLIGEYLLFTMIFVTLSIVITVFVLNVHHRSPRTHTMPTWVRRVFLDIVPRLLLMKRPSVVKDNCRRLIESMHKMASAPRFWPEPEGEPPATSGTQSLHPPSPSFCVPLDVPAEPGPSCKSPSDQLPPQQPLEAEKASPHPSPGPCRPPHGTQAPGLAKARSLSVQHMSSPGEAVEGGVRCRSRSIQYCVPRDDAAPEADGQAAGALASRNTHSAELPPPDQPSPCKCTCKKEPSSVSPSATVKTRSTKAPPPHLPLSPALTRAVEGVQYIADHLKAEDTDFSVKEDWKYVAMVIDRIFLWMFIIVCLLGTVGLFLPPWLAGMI
T1 sequence (P17787 26-502): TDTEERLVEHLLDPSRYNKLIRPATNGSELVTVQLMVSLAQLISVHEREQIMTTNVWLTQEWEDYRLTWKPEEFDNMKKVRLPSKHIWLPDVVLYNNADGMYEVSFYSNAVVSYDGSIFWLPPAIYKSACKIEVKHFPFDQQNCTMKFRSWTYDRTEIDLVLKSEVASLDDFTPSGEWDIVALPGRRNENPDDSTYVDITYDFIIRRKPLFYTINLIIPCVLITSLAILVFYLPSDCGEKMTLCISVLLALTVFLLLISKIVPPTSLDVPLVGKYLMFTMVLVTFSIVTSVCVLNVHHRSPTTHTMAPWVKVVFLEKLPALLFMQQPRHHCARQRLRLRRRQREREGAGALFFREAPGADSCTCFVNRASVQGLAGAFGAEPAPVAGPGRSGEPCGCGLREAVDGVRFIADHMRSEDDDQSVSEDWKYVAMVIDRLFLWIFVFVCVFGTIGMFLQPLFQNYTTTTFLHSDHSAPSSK
Sequence of Gamma-aminobutyric acid Receptor A (GABAA) (P14867 28-456): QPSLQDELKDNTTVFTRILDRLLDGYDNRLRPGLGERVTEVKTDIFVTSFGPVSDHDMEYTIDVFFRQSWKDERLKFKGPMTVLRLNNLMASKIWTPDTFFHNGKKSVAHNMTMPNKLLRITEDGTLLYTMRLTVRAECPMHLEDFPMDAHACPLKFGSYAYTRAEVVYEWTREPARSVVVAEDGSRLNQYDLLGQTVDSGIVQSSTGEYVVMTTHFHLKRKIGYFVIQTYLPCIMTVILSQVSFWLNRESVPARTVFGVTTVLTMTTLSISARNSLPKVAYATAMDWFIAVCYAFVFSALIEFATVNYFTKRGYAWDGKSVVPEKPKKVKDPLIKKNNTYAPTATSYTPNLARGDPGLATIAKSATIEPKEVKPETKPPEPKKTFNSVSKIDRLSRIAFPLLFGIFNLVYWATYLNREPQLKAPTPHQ
Sequence of Gamma-aminobutyric acid Receptor A (GABAA) (P47870 26-512): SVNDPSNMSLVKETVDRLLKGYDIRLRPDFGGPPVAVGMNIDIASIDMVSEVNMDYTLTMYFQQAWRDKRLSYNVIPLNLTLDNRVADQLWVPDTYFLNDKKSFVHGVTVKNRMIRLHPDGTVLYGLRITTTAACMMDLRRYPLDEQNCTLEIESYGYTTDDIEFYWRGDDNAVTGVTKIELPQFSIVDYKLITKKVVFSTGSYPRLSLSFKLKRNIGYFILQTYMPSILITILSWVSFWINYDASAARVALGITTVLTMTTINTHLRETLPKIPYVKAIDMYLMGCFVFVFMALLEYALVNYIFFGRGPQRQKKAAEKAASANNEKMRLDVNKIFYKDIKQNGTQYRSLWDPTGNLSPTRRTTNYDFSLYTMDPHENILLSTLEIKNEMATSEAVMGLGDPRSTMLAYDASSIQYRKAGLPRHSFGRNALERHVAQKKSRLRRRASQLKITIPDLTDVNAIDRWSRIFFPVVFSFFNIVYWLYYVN
Sequence of Gamma-aminobutyric acid Receptor A (GABAA) (P18507 40-475): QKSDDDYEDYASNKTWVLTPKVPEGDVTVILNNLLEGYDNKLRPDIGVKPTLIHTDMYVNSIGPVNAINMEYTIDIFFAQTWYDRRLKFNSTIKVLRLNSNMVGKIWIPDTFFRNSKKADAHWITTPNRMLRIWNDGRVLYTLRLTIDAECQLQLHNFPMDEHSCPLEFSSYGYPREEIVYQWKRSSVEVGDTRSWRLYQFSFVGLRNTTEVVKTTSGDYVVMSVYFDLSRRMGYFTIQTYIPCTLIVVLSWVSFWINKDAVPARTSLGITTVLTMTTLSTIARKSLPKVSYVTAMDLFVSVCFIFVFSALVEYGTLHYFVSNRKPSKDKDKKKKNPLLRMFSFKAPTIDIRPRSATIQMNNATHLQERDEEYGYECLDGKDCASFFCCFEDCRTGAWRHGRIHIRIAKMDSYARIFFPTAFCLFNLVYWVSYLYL

Dihydro-AY-erythroidine [reference compound]
IC50 [1]: 0.707 µM

Picrotoxin
IC50 [2]: 5.92 µM

B1: NGF: Tissue culture grade mouse β-nerve growth factor, neurotrophin used as positive control (protein, UniProt P01139 122-241, looked up)
Beta-nerve growth factor: SSTHPVFHMGEFSVCDSVSVWVGDKTTATDIKGKEVTVLAEVNINNSVFRQYFFETKCRASNPVESGCRGIDSKHWNSYCTTTHTFVKALTTDEKQAAWRFIRIDTACVCVLSRKATRRG
modifications: Beta-nerve growth factor
notes: Tissue culture grade mouse β-nerve growth factor, neurotrophin used as positive control
neurotropic effect in the presence of Trk A inhibitor K252a ([3]; 250 nM K252a, 10 μM HU-MCA-13): abolished | neurite outgrowth, Df value ([3]; 2 days): 0.54 | neurite outgrowth, Df value ([3]; 7 days): 0.4 | neurite outgrowth ([3]; low dose of NGF 1 ng/mL): 10% | neurite outgrowth, Df ([3]; low dose of NGF 1 ng/mL): 0.05 | neurite outgrowth length [4]: 700 μm | ratio between the area covered by neurites and that covered by the DRG ganglia [4]: 8.5 | fold increase in neurite outgrowth ([4]; versus control medium): 3.5 fold | production of PGE2 [5]: significantly increased | neurite outgrowth total length [6]: about 800 μm
